Publication PMC12607393

Key:
[1] = target: Galactia lindenii Type I lectin (GLL-I) (Galactia lindenii); assay: SDS-PAGE of unheated sample; purified GLL-I (15 ug per lane) in SDS without heating, with or without DTT; Coomassie staining
[2] = target: Galactia lindenii Type I lectin (GLL-I) (Galactia lindenii); assay: SDS-PAGE of heated sample; purified GLL-I (15 ug per lane) in SDS + DTT with heating (reducing conditions); Coomassie staining

**Q.** What does the source list for “Galactia lindenii Type I lectin (GLL-I) (natural protein)”?
**A.** stoichiometry N [1]: 4; stoichiometry N [2]: 2
